The text below walks through data of the RNAGym collection of RNA variant scans (doi:10.7554/elife.80360).

Sequences and labels used below:
B1: Hairpin Ribozyme (parent)
chain: GUCCUCUUUCACGUGCGCGUGAAAGAGAGAAGUGAACCAGAGAAACACACGUUGUGGUAUAUUACCUGGUA

In the data set the parent is B1. The experiment in a line: self-cleavage, relative activity (ratio to wild type); higher = more cleavage; co-transcriptional.
As for GUCCUCUUUCACGUGCGCGUGAAAGAGAGAAGUGAACCAGUCAAACACACGUUGUGGUAUAUUACCUGGUA, the self-cleavage came to 0.464.

As for GUCCUCUUUCACGUGCGCGUGAAAGAGAGAAGUGAACCAGUGAAACACACGUUGUGGUAUAUUACUUGGUA, the self-cleavage was 0.46.

Take GUCCUCUUUCACGUGCGCGUGAAAGAGAGAAGUGAACCAGUGAAACACACGUUGUGGCAUAUUACCUGGUA: the self-cleavage amounted to 1.41.

Consider GUCCUCUUUCACGUGCGCGUGAAAGAGAGAAGUGAACCAGACAAACACACGUUGUGGUAUAUUACAUGGUA, for which the self-cleavage amounted to 0.103.

Regarding GUCCUCUUUCACGUGCGCGUGAAAGAGAGAAGUGAACCAGACAAACACACGUUGUGGUAUAUUACUUGGUA, the self-cleavage was found to be 0.13.

As for GUCCUCUUUCACGUGCGCGUGAAAGAGAGAAGUGAACCAGACAAACACACGUUGUGGUAUAUUACGUGGUA, the self-cleavage came to 0.137.

For the variant GUCCUCUUUCACGUGCGCGUGAAAGAGAGAAGUGAACCAGUGAAACACACGUUGUGGUAUAUUACCUGGGA, the self-cleavage worked out at 1.1.

With GUCCUCUUUCACGUGCGCGUGAAAGAGAGAAGUGAACCAGUGAAACACACGUUGUGGUAUAUUACCUGGAA, the self-cleavage is 0.776.

Turning to GUCCUCUUUCACGUGCGCGUGAAAGAGAGAAGUGAACCAGACAAACACACGUUGUGGUAUAUUACCUGAUA, the self-cleavage stood at 0.0872.

Consider GUCCUCUUUCACGUGCGCGUGAAAGAGAGAAGUGAACCAGACAAACACACGUUGUGGUAUAUUACCUGCUA, for which the self-cleavage came out at 0.145.

Turning to GUCCUCUUUCACGUGCGCGUGAAAGAGAGAAGUGAACCAGACAAACACACGUUGUGGUAUAUUACCUGUUA, the self-cleavage was found to be 0.157.

With GUCCUCUUUCACGUGCGCGUGAAAGAGAGAAGUGAACCAGAAAAACACACGUUGUGGUAAAUUACCUGGUA, the self-cleavage amounted to 0.0887.

In the case of GUCCUCUUUCACGUGCGCGUGAAAGAGAGAAGUGAACCAGUGAAAGACACGUUGUGGUAUAUUACCUGGUA, the self-cleavage came to 0.133.

As to GUCCUCUUUCACGUGCGCGUGAAAGAGAGAAGUGAACCAGACAAACACACGUUGUGGUAUAUUACCUGGUG, the self-cleavage came out at 0.339.

Regarding GUCCUCUUUCACGUGCGCGUGAAAGAGAGAAGUGAACCAGACAAACACACGUUGUGGUAUAUUACCUGGUU, the self-cleavage was found to be 0.142.

In the case of GUCCUCUUUCACGUGCGCGUGAAAGAGAGAAGUGAACCAGAAAAACACACGUGGUGGUAUAUUACCUGGUA, the self-cleavage was found to be 0.237.

As to GUCCUCUUUCACGUGCGCGUGAAAGAGAGAAGUGAACCAGAAAAACACACGUCGUGGUAUAUUACCUGGUA, the self-cleavage is 0.388.

Take GUCCUCUUUCACGUGCGCGUGAAAGAGAGAAGUGAACCAGAAAAACACACGUUGUGGCAUAUUACCUGGUA: the self-cleavage is 0.21.

As for GUCCUCUUUCACGUGCGCGUGAAAGAGAGAAGUGAACCAGUGAAACACACGUUGUAGUAUAUUACCUGGUA, the self-cleavage was 0.285.

GUCCUCUUUCACGUGCGCGUGAAAGAGAGAAGUGAACCAGUGAAACACACGUUGUUGUAUAUUACCUGGUA: the self-cleavage was 0.125.

In the case of GUCCUCUUUCACGUGCGCGUGAAAGAGAGAAGUGAACCAGACAAACACACGUUGUGUUAUAUUACCUGGUA, the self-cleavage worked out at 0.146.

Take GUCCUCUUUCACGUGCGCGUGAAAGAGAGAAGUGAACCAGAAAAACACACGUUGUCGUAUAUUACCUGGUA: the self-cleavage turned out to be 0.105.

Turning to GUCCUCUUUCACGUGCGCGUGAAAGAGAGAAGUGAACCAGACAAACACACGCUGUGGUAUAUUACCUGGUA, the self-cleavage was 0.427.

Regarding GUCCUCUUUCACGUGCGCGUGAAAGAGAGAAGUGAACCAGACAAGCACACGUUGUGGUAUAUUACCUGGUA, the self-cleavage stood at 0.095.

Consider GUCCUCUUUCACGUGCGCGUGAAAGAGAGAAGUGAACCAGACAAUCACACGUUGUGGUAUAUUACCUGGUA, for which the self-cleavage came out at 0.124.

As to GUCCUCUUUCACGUGCGCGUGAAAGAGAGAAGUGAACCAGAAAAACGCACGUUGUGGUAUAUUACCUGGUA, the self-cleavage came to 0.162.

With GUCCUCUUUCACGUGCGCGUGAAAGAGAGAAGUGAACCAGAAAAACACACGUUGUGGUAUAUUUCCUGGUA, the self-cleavage is 0.107.

Consider GUCCUCUUUCACGUGCGCGUGAAAGAGAGAAGUGAACCAGUGAAACACACGUGGUGGUAUAUUACCUGGUA, for which the self-cleavage worked out at 1.16.

For the variant GUCCUCUUUCACGUGCGCGUGAAAGAGAGAAGUGAACCAGACAAACACACUUUGUGGUAUAUUACCUGGUA, the self-cleavage came to 0.448.

Consider GUCCUCUUUCACGUGCGCGUGAAAGAGAGAAGUGAACCAGACACACACACGUUGUGGUAUAUUACCUGGUA, for which the self-cleavage was 0.0939.

Consider GUCCUCUUUCACGUGCGCGUGAAAGAGAGAAGUGAACCAGACAUACACACGUUGUGGUAUAUUACCUGGUA, for which the self-cleavage was 0.174.

Consider GUCCUCUUUCACGUGCGCGUGAAAGAGAGAAGUGAACCAGACAGACACACGUUGUGGUAUAUUACCUGGUA, for which the self-cleavage was 0.137.

For the variant GUCCUCUUUCACGUGCGCGUGAAAGAGAGAAGUGAACCAGUGAAACACACGUUGUGGUAUAUUUCCUGGUA, the self-cleavage was 0.258.

Take GUCCUCUUUCACGUGCGCGUGAAAGAGAGAAGUGAACCAGUGAAACACACGUUGUGGUAUAUUGCCUGGUA: the self-cleavage came to 0.372.

Take GUCCUCUUUCACGUGCGCGUGAAAGAGAGAAGUGAACCAGAAAAAUACACGUUGUGGUAUAUUACCUGGUA: the self-cleavage was 0.0972.

With GUCCUCUUUCACGUGCGCGUGAAAGAGAGAAGUGAACCAGAAAAACACACGUUGUGGUAUAUUACCGGGUA, the self-cleavage was 0.125.

In the case of GUCCUCUUUCACGUGCGCGUGAAAGAGAGAAGUGAACCAGAAAAACACACGUUGUGGUAUAUUACCAGGUA, the self-cleavage stood at 0.219.

As to GUCCUCUUUCACGUGCGCGUGAAAGAGAGAAGUGAACCAGUGAAACACACGUUGUGGUAAAUUACCUGGUA, the self-cleavage amounted to 1.37.

For the variant GUCCUCUUUCACGUGCGCGUGAAAGAGAGAAGUGAACCAGAAAAACAGACGUUGUGGUAUAUUACCUGGUA, the self-cleavage came out at 0.127.

As for GUCCUCUUUCACGUGCGCGUGAAAGAGAGAAGUGAACCAGACAAACACACGUUGUCGUAUAUUACCUGGUA, the self-cleavage stood at 0.159.

Consider GUCCUCUUUCACGUGCGCGUGAAAGAGAGAAGUGAACCAGUGAAACACACGUUGUGGUAUAGUACCUGGUA, for which the self-cleavage was 0.202.

With GUCCUCUUUCACGUGCGCGUGAAAGAGAGAAGUGAACCAGUGAAACACACGUUGUGGUAUAAUACCUGGUA, the self-cleavage worked out at 0.143.

Turning to GUCCUCUUUCACGUGCGCGUGAAAGAGAGAAGUGAACCAGUGAAACACACGUUGUGGUAUACUACCUGGUA, the self-cleavage amounted to 0.711.

With GUCCUCUUUCACGUGCGCGUGAAAGAGAGAAGUGAACCAGAAAAUCACACGUUGUGGUAUAUUACCUGGUA, the self-cleavage turned out to be 0.109.

For GUCCUCUUUCACGUGCGCGUGAAAGAGAGAAGUGAACCAGACAAACACACGUUGUGGUCUAUUACCUGGUA, the self-cleavage came out at 0.188.

As for GUCCUCUUUCACGUGCGCGUGAAAGAGAGAAGUGAACCAGACAAACACACGUUGUGGUUUAUUACCUGGUA, the self-cleavage stood at 0.156.

With GUCCUCUUUCACGUGCGCGUGAAAGAGAGAAGUGAACCAGUGAAACACACGUUGUGGUAUAUUACCUGUUA, the self-cleavage turned out to be 0.348.

Consider GUCCUCUUUCACGUGCGCGUGAAAGAGAGAAGUGAACCAGUGAAACACACGUUGUGGUAUAUUACCUGAUA, for which the self-cleavage came to 0.685.

Take GUCCUCUUUCACGUGCGCGUGAAAGAGAGAAGUGAACCAGUGAAACACACGUUGUGGUAUAUUACCUGCUA: the self-cleavage was 0.55.

On to GUCCUCUUUCACGUGCGCGUGAAAGAGAGAAGUGAACCAGAAAAACACACGUUGUGGUAUAUUACCUGAUA, for which the self-cleavage was 0.112.

As for GUCCUCUUUCACGUGCGCGUGAAAGAGAGAAGUGAACCAGACAAACACACGUUGUGGUAUAUUGCCUGGUA, the self-cleavage worked out at 0.232.

On to GUCCUCUUUCACGUGCGCGUGAAAGAGAGAAGUGAACCAGACAAACACAAGUUGUGGUAUAUUACCUGGUA, for which the self-cleavage was 0.212.

GUCCUCUUUCACGUGCGCGUGAAAGAGAGAAGUGAACCAGUGAAACACACGUUUUGGUAUAUUACCUGGUA: the self-cleavage was 1.19.

Turning to GUCCUCUUUCACGUGCGCGUGAAAGAGAGAAGUGAACCAGAAAAACACACGAUGUGGUAUAUUACCUGGUA, the self-cleavage was 0.221.

As for GUCCUCUUUCACGUGCGCGUGAAAGAGAGAAGUGAACCAGAAAAACACACGUUGUGGUAUAUUACCUUGUA, the self-cleavage was determined as 0.144.

As to GUCCUCUUUCACGUGCGCGUGAAAGAGAGAAGUGAACCAGACAAACACACGUUGUGGUAUAUUAACUGGUA, the self-cleavage amounted to 0.21.

GUCCUCUUUCACGUGCGCGUGAAAGAGAGAAGUGAACCAGAAAAACACACGUUGUGGUAUAUUACCUGGCA: the self-cleavage was determined as 0.128.

GUCCUCUUUCACGUGCGCGUGAAAGAGAGAAGUGAACCAGACAAACUCACGUUGUGGUAUAUUACCUGGUA: the self-cleavage came to 0.147.

Turning to GUCCUCUUUCACGUGCGCGUGAAAGAGAGAAGUGAACCAGAACAACACACGUUGUGGUAUAUUACCUGGUA, the self-cleavage came to 0.127.

Regarding GUCCUCUUUCACGUGCGCGUGAAAGAGAGAAGUGAACCAGUGAAACACACGUUGUGUUAUAUUACCUGGUA, the self-cleavage is 0.493.

Turning to GUCCUCUUUCACGUGCGCGUGAAAGAGAGAAGUGAACCAGAAAAACACACGUUGUGGUAUUUUACCUGGUA, the self-cleavage amounted to 0.125.

With GUCCUCUUUCACGUGCGCGUGAAAGAGAGAAGUGAACCAGAAAAACACACGUUGUGGUAUCUUACCUGGUA, the self-cleavage was 0.0818.

For GUCCUCUUUCACGUGCGCGUGAAAGAGAGAAGUGAACCAGACAAACAUACGUUGUGGUAUAUUACCUGGUA, the self-cleavage amounted to 0.143.

Consider GUCCUCUUUCACGUGCGCGUGAAAGAGAGAAGUGAACCAGACAAACAGACGUUGUGGUAUAUUACCUGGUA, for which the self-cleavage was 0.113.

In the case of GUCCUCUUUCACGUGCGCGUGAAAGAGAGAAGUGAACCAGUGAAACACAGGUUGUGGUAUAUUACCUGGUA, the self-cleavage stood at 0.756.

With GUCCUCUUUCACGUGCGCGUGAAAGAGAGAAGUGAACCAGAAAAACACACGUUGUGGUAUAUUACUUGGUA, the self-cleavage was 0.147.

Regarding GUCCUCUUUCACGUGCGCGUGAAAGAGAGAAGUGAACCAGACAAACACACGUUCUGGUAUAUUACCUGGUA, the self-cleavage came out at 0.113.

For GUCCUCUUUCACGUGCGCGUGAAAGAGAGAAGUGAACCAGAAAAACACACGUUGUGGUAUACUACCUGGUA, the self-cleavage came out at 0.133.

Take GUCCUCUUUCACGUGCGCGUGAAAGAGAGAAGUGAACCAGAAAAACACACGUUGUGGUAUAAUACCUGGUA: the self-cleavage was 0.151.

For GUCCUCUUUCACGUGCGCGUGAAAGAGAGAAGUGAACCAGACGAACACACGUUGUGGUAUAUUACCUGGUA, the self-cleavage amounted to 0.177.

Regarding GUCCUCUUUCACGUGCGCGUGAAAGAGAGAAGUGAACCAGACAAAUACACGUUGUGGUAUAUUACCUGGUA, the self-cleavage was found to be 0.12.

For the variant GUCCUCUUUCACGUGCGCGUGAAAGAGAGAAGUGAACCAGUGAAACACACUUUGUGGUAUAUUACCUGGUA, the self-cleavage amounted to 1.5.

GUCCUCUUUCACGUGCGCGUGAAAGAGAGAAGUGAACCAGACAAACACACGUCGUGGUAUAUUACCUGGUA: the self-cleavage was determined as 0.491.

As for GUCCUCUUUCACGUGCGCGUGAAAGAGAGAAGUGAACCAGACAAACACACGUUGUGGCAUAUUACCUGGUA, the self-cleavage stood at 0.185.

As to GUCCUCUUUCACGUGCGCGUGAAAGAGAGAAGUGAACCAGAAAAACACGCGUUGUGGUAUAUUACCUGGUA, the self-cleavage came to 0.118.

Consider GUCCUCUUUCACGUGCGCGUGAAAGAGAGAAGUGAACCAGAAAAACACACGUUGUGGUAUAUGACCUGGUA, for which the self-cleavage amounted to 0.193.
